Data on three molecules can be found in patent publication US20160185857A1 (SUPPREMOL, published 2016).

Experiment [1] addresses T1, native FcγRIIA expressed on K562 cells (human, UniProt P12318 34-317).
T1 construct: whole, on cells
T1 sequence (looked up): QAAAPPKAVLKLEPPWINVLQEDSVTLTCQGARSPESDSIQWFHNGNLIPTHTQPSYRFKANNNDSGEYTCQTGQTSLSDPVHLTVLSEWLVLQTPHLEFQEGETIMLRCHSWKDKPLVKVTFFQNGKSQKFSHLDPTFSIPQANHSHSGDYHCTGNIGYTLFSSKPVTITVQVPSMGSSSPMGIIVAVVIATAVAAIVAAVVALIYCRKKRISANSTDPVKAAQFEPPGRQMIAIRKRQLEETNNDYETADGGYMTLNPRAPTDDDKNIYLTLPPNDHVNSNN
Kind of experiment: flow cytometry on K562 cells. Here is the method: FIG. 5: Binding of 15 μg/ml antibody (hu8A6_VH+hu8A6_VL and ch8A6_N297A) to native FcγRIIA expressed on K562 cells.
Raji and K562 cells were incubated with increasing concentrations of humanized antibodies and the chimeric antibody as control. Raji cells were used to test binding on FcγRIIB (FIG. 4), K562 cells to analyze unspecific binding to FcγRIIA (FIG. 5). Cell bound antibodies were detected with PE-conjugated secondary antibody.

The target in experiment [2] is T2, native FcγRIIB, membrane-bound, endogenously expressed on human cells (Raji, Daudi, PBMC) (human, UniProt P31994 43-310).
T2 sequence (looked up): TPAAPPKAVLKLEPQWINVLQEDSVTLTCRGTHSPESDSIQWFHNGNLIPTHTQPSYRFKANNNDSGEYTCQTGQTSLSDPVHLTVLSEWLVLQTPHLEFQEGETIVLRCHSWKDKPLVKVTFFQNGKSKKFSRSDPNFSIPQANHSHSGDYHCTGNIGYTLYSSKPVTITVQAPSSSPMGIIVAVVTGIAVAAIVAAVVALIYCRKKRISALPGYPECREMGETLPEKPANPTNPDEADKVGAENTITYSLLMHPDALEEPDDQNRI
Briefly: cell-based or functional assay.

Experiment [3] addresses T3, recombinant soluble human FcγRIIB (human, UniProt P31994 43-217).
T3 construct: also called sFcγRIIB
T3 sequence: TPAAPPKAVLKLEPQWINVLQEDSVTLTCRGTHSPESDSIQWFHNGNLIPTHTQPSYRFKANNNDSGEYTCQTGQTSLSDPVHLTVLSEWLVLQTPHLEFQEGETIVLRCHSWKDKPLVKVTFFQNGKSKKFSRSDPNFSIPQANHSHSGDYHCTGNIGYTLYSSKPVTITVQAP
Kind of experiment: ELISA, sFcγRIIB coated on plates, hybridoma supernatant.

B1: ch8A6_N297A (chimeric 8A6, rat variable regions, human IgG1 N297A constant region, human kappa) (antibody)
heavy: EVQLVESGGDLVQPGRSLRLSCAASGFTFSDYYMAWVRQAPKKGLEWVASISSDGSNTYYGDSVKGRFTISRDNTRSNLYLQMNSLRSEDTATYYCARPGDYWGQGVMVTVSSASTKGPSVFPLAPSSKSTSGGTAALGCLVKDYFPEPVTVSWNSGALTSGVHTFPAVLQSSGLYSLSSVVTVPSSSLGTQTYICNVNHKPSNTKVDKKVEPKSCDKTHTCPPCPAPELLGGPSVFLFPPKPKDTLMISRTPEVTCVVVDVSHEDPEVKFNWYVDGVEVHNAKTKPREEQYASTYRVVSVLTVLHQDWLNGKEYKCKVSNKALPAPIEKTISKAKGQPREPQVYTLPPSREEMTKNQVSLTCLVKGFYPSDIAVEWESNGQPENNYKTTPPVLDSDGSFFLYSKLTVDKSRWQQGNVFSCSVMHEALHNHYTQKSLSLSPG
light: NIVMTQSPTSMFISVGDRVTMNCKASQNVGTYVDWFQQKTGQSPTLLIFGASNRYTGVPDRFTGSGSGTDFTLSISNMQAEDLAVYYCLQYNYHPYTFGPGTTLELKRTVAAPSVFIFPPSDEQLKSGTASVVCLLNNFYPREAKVQWKVDNALQSGNSQESVTEQDSKDSTYSLSSTLTLSKADYEKHKVYACEVTHQGLSSPVTKSFNRGEC
notes: also called chimeric 8A6_N297A
For the molecule B1, the binding result in experiment [1] is reported as “no binding (tested: 15 µg/ml)”.

B2: chGB3_N297A (chimeric GB3, prior art antibody of WO 2005/051999, N297A format) (antibody, V domains shown)
VH: VQLQQSGPELVKPGASVKISCKASGYTFTDYYIYWVKQWPGQGLEWIGWIFPGTGNTYYNENFKDKATLTIDRSSSTAYMLLGSLTSEDSAVYFCYGPFAYWGQ
VL: RIQLTQSPSSLSASLGERVSLTCRASQEISGYLSWLQQKPDGTIKRLIYATSALDSGVPKRFSGSGSGSNYSLTISSLESEDFADYYCLQYANYPYTFGGGTKL
As to B2, the “maximum fold phospho-signal of the FcγRIIB ITIM against untreated cells, densitometry of Western blot, Daudi cells” value in experiment [2] is 2.8 fold.

B3: monoclonal antibody 8A6 (rat IgG2a) (antibody, V domains shown)
VH: EVQLVESGGDLVQPGRSLRLSCAASGFTFSDYYMAWVRQAPKKGLEWVASISSDGSNTYYGDSVKGRFTISRDNTRSNLYLQMNSLRSEDTATYYCARPGDYWGQGVMVTVSS
VL: NIVMTQSPTSMFISVGDRVTMNCKASQNVGTYVDWFQQKTGQSPTLLIFGASNRYTGVPDRFTGSGSGTDFTLSISNMQAEDLAVYYCLQYNYHPYTFGPGTTLELKR
notes: Rat IgG2a from hybridoma supernatant; also called mAb 8A6; rat antibody 8A6
Consider B3, for which, in experiment [3], the binding result is on record as “binds”.
